This is an account of results in patent US20240000956A1.

Assay [1] addresses LecRLK-2RPAN (Salix purpurea). Description: size exclusion chromatography, self-association. For orientation: SEC sorts molecules by how far they enter the pores of the column.
The target in assay [2] is SpG-type LecRLK-2PAN (Salix purpurea). The experiment in a line: size exclusion chromatography, self-association.

LecRLK-2RPAN (receptor) gave a percent monomeric in assay [1] of 26.4%. As to SpG-type LecRLK-2PAN (receptor), in assay [2], the percent in higher-order complex (likely a trimer or tetramer) came to 48.2% and the percent monomeric is 51.8%.
